T1: HPV 16 E7 peptide on HLA-A*02:01 (human)
T1 peptide: YMLDLQPET

T2: HPV 16 E6 peptide on HLA-A*02:01 (human)
T2 peptide: TIHDIILECV


How the values were obtained:
[1] = molecular target: T1, HPV 16 E7 peptide on HLA-A*02:01; experiment: multimer staining
[2] = molecular target: T2, HPV 16 E6 peptide on HLA-A*02:01; experiment: multimer staining

Row | Binder | binding result [1] | binding result [2]
1 | TCR 62 (TCR, V domains shown) Valpha: AQTVTQSQPEMSVQEAETVTLSCTYDTSENNYYLFWYKQPPSRQMILVIRQEAYKQQNATENRFSVNFQKAAKSFSLKISDSQLGDTAMYFCALYTYKYIFGTGTRLKVLA Vbeta: EAGVAQSPRYKIIEKRQSVAFWCNPISGHATLYWYQQILGQGPKLLIQFQNNGVVDDSQLPKDRFSAERLKGVDSTLKIQPAKLEDSAVYLCASSLDTRGSSYNEQFFGPGTRLTVL | recognises | no recognition
2 | TCR 65 (TCR, V domains shown) Valpha: EDQVTQSPEALRLQEGESSSLNCSYTVSGLRGLFWYRQDPGKGPEFLFTLYSAGEEKEKERLKATLTKKESFLHITAPKPEDSATYLCAVQAERGSTLGRLYFGRGTQLTVWP Vbeta: DVKVTQSSRYLVKRTGEKVFLECVQDMDHENMFWYRQDPGLGLRLIYFSYDVKMKEKGDIPEGYSVSREKKERFSLILESASTNQTSMYLCASSLWGRRNTGELFFGEGSRLTVL | no recognition | recognises

Reference: US20190321401A1 (JUNO THERAPEUTICS, published 2019)
